Laboratory results taken from patent publication US12030929B2, “Fusobacterium nucleatum amyloid-like FadA for diagnosis and treatment of Fn-mediated pathogenesis” (The Trustees of Columbia University in the City of New York, priority 2021, dated 2024).
Residue numbers refer to the chain shown, from its start. Names may count otherwise.

B1: FadAc: recombinant active heterogeneous complex of pre-FadA and mFadA (protein)
chain 1: MKKFLLLAVLAVSASAFAATDAASLVGELQALDAEYQNLANQEEARFNEERAQADAARQALAQNEQVYNELSQRAQRLQAEANTRFYKSQYQELASKYEDALKKLEAEMEQQKAVISDFEKIQALRAGN
chain 2: ATDAASLVGELQALDAEYQNLANQEEARFNEERAQADAARQALAQNEQVYNELSQRAQRLQAEANTRFYKSQYQELASKYEDALKKLEAEMEQQKAVISDFEKIQALRAGN
B2: L14A (protein)
chain: B1 chain 2 with L14A
B3: L76A (protein)
chain: B1 chain 2 with L76A
B4: S71A (protein)
chain 1: B1 chain 1
chain 2: B1 chain 2 with S71A
B5: mFadA: cleaved mature form of FadA, 111 aa residues without the signal peptide (protein)
chain: B1 chain 2

Legend:
[1] = Thioflavin-T binding assay; conditions: 10 μM Thioflavin-T; for Thioflavin-T binding in the presence of 0.1% SDS: FadA proteins 0.8 mg/ml; for Thioflavin-T binding: without SDS, 10 min
Procedure: (§1) FIG. 2A-2G. Pre-FadA as a key component of amyloid-like FadA. 2A. Single-letter amino acid (aa) sequence of FadA (SEQ ID NO:28). The intact pre-FadA consists of 129 aa, with the first 18-aa (top row) constitute the signal peptide. The remaining 111 aa constitute mFadA. The residues that are replaced in the mutant proteins used in this study are shown in red. 2B. Analysis of detergent resistant recombinant FadA polymers expressed in E. coli. An aliquot of 50 μg detergent-resistant pellets prepared from E. coli BL21(DE3) carrying the cloning vector pET21(b), pYWH417-6 (p_FadAc), or pYWH418 (p_mFadA) were analyzed by SDD-AGE, followed by Western blot analysis. FadA polymers were only detected in E. coli expressing FadAc, but not in mFadA or the vector control. 2C. Reactivity of recombinant FadA and its variants with anti-amyloid fibril antibody OC. A total of 10 μg each of recombinant protein mFadA, FadAc, FadA-L-9A, FadA-L14A, FadA-S71A, and FadA-L76A purified from E. coli was slot-blotted onto nitrocellulose and incubated with polyclonal OC antibody at 1:5,000 dilution. Amyloid-like recombinant Rim4 (Berchowitz et al., 2015) was used as a positive control and histone H1 was used as a negative control. Ponceau stain (pink color) is shown as a loading control. 2D. Thioflavin-T binding assay. FadA proteins at indicated concentrations were incubated with 10 μM Thioflavin-T at room temperature for 10 min. The fluorescent intensity was measured at excitation wavelength of 440 nm and emission wavelength of 500 nm. The experiment was performed in duplicate and repeated three times. *p<0.05, **p<0.01, ***p<0.001 (compared to BSA, t-test). 2E. Thioflavin-T binding assay in the presence of 0.1% SDS. FadA proteins (0.8 mg/ml) were incubated with 10 μM Thioflavin-T at room temperature for 10 min. The fluorescent intensity was measured at excitation wavelength of 440 nm and emission wavelength of 500 nm. The experiment was performed in duplicate and repeated three times. *p<0.05, **p<0.01 (compared to BSA, t-test). 2F. Western blot analysis of Fn12230 (Fn), fadA-deletion mutant US1 (ΔfadA) and spontaneous mutant lam following SDS-PAGE. A total of 400 μl of each culture grown to OD600 of 1.0 was pelleted and loaded onto 12% SDS-PAGE. FadA protein was detected using anti-FadA mAb 7H7 at 1:4,000 dilution. […] 2G. Analysis of amyloid-like FadA produced by Fn 23726 and its Δfap2 mutant. An aliquot of 50 μg detergent-resistant pellets was loaded onto each lane, followed by SDD-AGE and Western blot analysis as described above.
Thioflavin-T binding assay. Thioflavin-T assay was conducted as previously described (Tukel et al., 2009). A mixture of 50 μl of FadA proteins and 50 μl of 10 μM Thioflavin-T was added to a black 96-well plate and incubated for 10 min at room temperature. After incubation, the fluorescence intensity was determined using a SpectraMax M5 microplate reader at excitation wavelength of 440 nm and emission wavelength of 500 nm. For SDS stability test, the FadA proteins were pre-incubated in 0.1% SDS for 30 min at room temperature, followed by Thioflavin-T binding assay as described above.

HCT116 xenograft tumors = conditions: shown previously (Rubinstein et al., 2013); cited from earlier work
[2] = tested on: anti-amyloid fibril antibody OC; test: Slot blot assay with anti-amyloid fibril antibody OC; assay type: binding; conditions: 10 μg recombinant protein; OC at 1:5,000 dilution
Procedure: as §1
(§2) Slot blot assay. Ten micrograms each of purified recombinant protein was slot-blotted onto nitrocellulose membrane (BioRad) and assayed for reactivity with polyclonal anti-amyloid fibril antibodies OC (α-amyloid fibril OC, Sigma-Aldrich CAT #AB2286) at 1:5,000 dilution and goat-anti-rabbit IgG (GE Healthcare) at 1:10,000 dilution, or polyclonal anti-amyloid oligomer antibody A11 (α-oligomer A11 at 1:5,000 dilution, ThermoFisher Scientific CAT #AHB0052) and goat-anti-rabbit IgG at 1:10,000 dilution, followed by detection with ECL Prime (GE Healthcare). Amyloid-like recombinant Rim4 was used as a positive control (Berchowitz et al., 2015) and histone H1 was used as a negative control. Loading was assessed by Ponceau stain (Sigma CAT #P7170).

[3] = tested on: anti-amyloid oligomer antibody A11; test: Slot blot assay with anti-amyloid oligomer antibody A11; assay type: binding; conditions: 10 μg recombinant protein; A11 at 1:5,000 dilution
Procedure: FIG. 8A-8C. 8A. SDS-PAGE analysis of recombinant FadAc and its variants. The proteins were purified as previously described (Xu et al., 2007). Approximately 2.5 μg of each purified protein were loaded onto 12% SDS-PAGE. Following electrophoresis, the gel was stained with Coomassie Blue G-250. 8B. Reactivities of recombinant FadA and its variants with anti-amyloid oligomer antibody A11. A total of 10 μg each of recombinant protein mFadA, FadAc, FadA-L-9A, FadA-L14A, FadA-S71A, and FadA-L76A purified from E. coli was slot-blotted onto nitrocellulose and incubated with polyclonal anti-amyloid oligomer antibody A11 at 1:5,000 dilution. Amyloid-like recombinant Rim4 (Berchowitz et al., 2015) was used as a positive control and histone H1 was used as a negative control. Ponceau stain (pink color) is shown as a loading control. 8C. Western blot analysis of wild-type Fn 23726 (1) and mutants Δfap2 (2) using anti-FadA mAb 7H7. The bottom panel is Coomassie blue stain for loading control.
as §2

[4] = tested on: Fn binding to human CRC cells DLD1; test: Cell culture attachment assay, DLD1; assay type: cell-based; conditions: 50 μg FadAc pre-incubated with DLD1 for 45 min
[5] = SDD-AGE and Western blot of detergent-resistant polymers; assay type: physicochemical; conditions: expressed in E. coli; SDD-AGE, Western blot with mAb 7H7
Procedure: FIG. 2A-2G. Pre-FadA as a key component of amyloid-like FadA. 2A. Single-letter amino acid (aa) sequence of FadA (SEQ ID NO:28). The intact pre-FadA consists of 129 aa, with the first 18-aa (top row) constitute the signal peptide. The remaining 111 aa constitute mFadA. The residues that are replaced in the mutant proteins used in this study are shown in red. 2B. Analysis of detergent resistant recombinant FadA polymers expressed in E. coli. An aliquot of 50 μg detergent-resistant pellets prepared from E. coli BL21(DE3) carrying the cloning vector pET21(b), pYWH417-6 (p_FadAc), or pYWH418 (p_mFadA) were analyzed by SDD-AGE, followed by Western blot analysis. FadA polymers were only detected in E. coli expressing FadAc, but not in mFadA or the vector control. 2C. Reactivity of recombinant FadA and its variants with anti-amyloid fibril antibody OC. A total of 10 μg each of recombinant protein mFadA, FadAc, FadA-L-9A, FadA-L14A, FadA-S71A, and FadA-L76A purified from E. coli was slot-blotted onto nitrocellulose and incubated with polyclonal OC antibody at 1:5,000 dilution. […] The fluorescent intensity was measured at excitation wavelength of 440 nm and emission wavelength of 500 nm. […] The fluorescent intensity was measured at excitation wavelength of 440 nm and emission wavelength of 500 nm. […] FadA protein was detected using anti-FadA mAb 7H7 at 1:4,000 dilution. […]

[6] = Circular dichroism (CD) test; assay type: physicochemical; conditions: wavelength range 190-250 nm; 0.2 mg/ml protein
Procedure: Circular dichroism (CD) test. CD was used to evaluate the secondary structure of FadA and its mutants. One hundred microliter of 0.2 mg/ml purified FadA was analyzed by Chirascan V100 Spectrometer using a 1 mm path-length fused quartz cell. The measurements are an average of three scans for each sample, captured at a scan rate of 1 sec., bandwidth and step size of 1 nm, over a wavelength range of 190-250 nm. CD spectra were recorded and analyzed with BestSel server (see www at bestsel.elte.hu/).

Row | Molecule | Thioflavin-T binding in the presence of 0.1% SDS [1] | stimulation of xenograft tumor growth (HCT116 xenograft tumors) | reactivity with anti-amyloid fibril antibody OC [2] | reactivity with anti-amyloid oligomer antibody A11 [3] | inhibition of Fn binding to DLD1 [4] | formation of detergent-resistant polymers [5] | α helix (%) [6] [%] | β strand (%) [6] [%] | Thioflavin-T binding [1]
1 | B1 | bound Thioflavin-T | stimulated xenograft tumor growth | reacted | reacted | effectively inhibited | formed detergent-resistant polymers | 47.2 | 9.6 | –
2 | B2 | – | – | did not react | did not react | – | – | 44.2 | 11.6 | did not bind Thioflavin-T
3 | B3 | – | – | did not react | did not react | – | – | – | – | –
4 | B4 | bound Thioflavin-T | – | reacted | reacted | – | – | 49.1 | 8 | –
5 | B5 | did not bind Thioflavin-T | not | not with the anti-fibril OC | reacted weakly | – | did not form polymers | 27.9 | 18.8 | bound more Thioflavin-T than FadAc
